Measurements as given in patent EP4636087A1, “ANTI-GPA33 ANTIBODY AND UTILIZATION THEREOF” (Kagoshima University, priority 2022, dated 2024).

Assays:
[1] = target: T1, mouse GPA33 expressed on CHO-K1 cells (mGPA33-expressing cells) (mouse, UniProt Q9JKA5 22-319); assay: FACS, 0.1 µg scFv on GPA33-expressing CHO-K1 cells, anti-His-biotin and SA-PE detection
T1 construct: whole, on cells
T1 sequence (looked up): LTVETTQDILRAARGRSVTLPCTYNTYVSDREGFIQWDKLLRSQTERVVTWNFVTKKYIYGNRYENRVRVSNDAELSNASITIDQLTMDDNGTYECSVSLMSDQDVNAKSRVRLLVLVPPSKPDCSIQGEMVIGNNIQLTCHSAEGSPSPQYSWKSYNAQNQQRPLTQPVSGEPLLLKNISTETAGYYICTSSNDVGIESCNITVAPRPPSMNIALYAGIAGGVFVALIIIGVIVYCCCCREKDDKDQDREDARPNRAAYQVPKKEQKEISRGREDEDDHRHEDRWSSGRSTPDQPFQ

[2] = target: T2, human GPA33 expressed on CHO-K1 cells (hGPA33-expressing cells co-expressing GFP) (human, UniProt Q99795 22-319); assay: as above
T2 construct: whole, on cells; CHO-K1 transfected with an hGPA33 expression vector (ORIGENE) co-expressing GFP
T2 sequence (looked up): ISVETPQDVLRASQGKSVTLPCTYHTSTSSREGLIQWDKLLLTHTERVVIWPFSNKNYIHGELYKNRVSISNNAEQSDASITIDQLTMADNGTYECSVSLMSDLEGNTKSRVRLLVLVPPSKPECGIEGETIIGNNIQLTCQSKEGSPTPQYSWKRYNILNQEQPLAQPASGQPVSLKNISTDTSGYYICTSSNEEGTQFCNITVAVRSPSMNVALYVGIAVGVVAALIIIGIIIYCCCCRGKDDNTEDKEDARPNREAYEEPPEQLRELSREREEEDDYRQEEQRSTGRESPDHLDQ

[3] = target: T3, human GPA33 recombinant protein (C-terminal His tag fusion protein, abcam) (human, UniProt Q99795 22-235, limits assumed); assay: SPR, Biacore T200, 25°C, GPA33-His amine-coupled on CM5, scFv-Fc as analyte, 1:1 binding model
T3 construct: Bought recombinant protein (abcam); also called hGPA33
T3 sequence (looked up): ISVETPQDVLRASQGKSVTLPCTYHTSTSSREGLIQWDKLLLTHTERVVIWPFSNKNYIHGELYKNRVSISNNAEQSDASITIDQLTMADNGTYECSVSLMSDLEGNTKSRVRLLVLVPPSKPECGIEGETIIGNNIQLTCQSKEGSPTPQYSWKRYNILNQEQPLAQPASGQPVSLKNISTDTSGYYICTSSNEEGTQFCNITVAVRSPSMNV

[4] = target: T4, mouse GPA33 recombinant protein (C-terminal His tag fusion protein, abcam) (mouse, UniProt Q9JKA5 22-235, limits assumed); assay: as above
T4 construct: Bought recombinant protein (abcam); also called mGPA33
T4 sequence (looked up): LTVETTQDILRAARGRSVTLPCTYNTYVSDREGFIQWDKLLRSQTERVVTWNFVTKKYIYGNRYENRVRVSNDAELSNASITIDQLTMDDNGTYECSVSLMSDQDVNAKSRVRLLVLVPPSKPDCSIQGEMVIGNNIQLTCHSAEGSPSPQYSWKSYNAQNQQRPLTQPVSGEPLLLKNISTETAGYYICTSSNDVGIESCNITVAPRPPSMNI

[5] = target: T5, human GPA33 expressed on HEK293STF cells (EGFP-human GPA33 expression vector, ORIGENE RG210225) (human, UniProt Q99795 22-319); assay: cell-based or functional assay
T5 sequence (looked up): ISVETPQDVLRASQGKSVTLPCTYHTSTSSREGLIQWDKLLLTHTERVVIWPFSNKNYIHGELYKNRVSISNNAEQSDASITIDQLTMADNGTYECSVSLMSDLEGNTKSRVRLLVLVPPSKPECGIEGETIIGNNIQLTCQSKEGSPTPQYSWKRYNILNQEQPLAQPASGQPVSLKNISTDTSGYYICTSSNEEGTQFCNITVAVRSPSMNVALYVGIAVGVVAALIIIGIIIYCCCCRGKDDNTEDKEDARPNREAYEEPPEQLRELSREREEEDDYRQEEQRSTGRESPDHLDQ

[6] = target: T1, mouse GPA33 expressed on CHO-K1 cells …; assay: FACS, cloned phage on GPA33-expressing CHO-K1 cells
[7] = target: T2, human GPA33 expressed on CHO-K1 cells …; assay: as above

B1: 2RC28-Cys anti-GPA33 scFv (Cys-containing sequence, His tag and Myc tag at the C-terminal side), expressed in Escherichia coli (scFv)
scFv: EVQLVESGGGLVKPGGSLRLSCAASGFTFSSYSMNWVRQAPGKGLEWVSSISRDSTYIYYADSVKGRFTISRDNAKNSLYLQMNSLRAEDTAVYYCAREGVAGAFDIWGQGTMVTVSSGGGGSGGGGSGSTGSAIQLTQSPSSLSASVGDRVTITCRASQSISSYLNWYQQKPGKAPKLLIYIASSLQSGVPSRFSGSGSGTDFTLTISSLQPEDFATYYCQQSYNTWTFGQGTKVEIKAACTSAHHHHHHGAAEQKLISEEDLNGAA
notes: Periplasmic expression in E. coli HB2151, purified on a His tag column; also called 2RC28 scFv; anti-GPA33 single chain Fv-His
Q: Does B1 bind [1]?
A: binds

Q: Does B1 bind [2]?
A: binds

B2: GPA2RC28-Fc (anti-GPA33 single-chain Fv-Fc, scFv linked to human IgG1-Fc) (Fc fusion)
chain: EVQLVESGGGLVKPGGSLRLSCAASGFTFSSYSMNWVRQAPGKGLEWVSSISRDSTYIYYADSVKGRFTISRDNAKNSLYLQMNSLRAEDTAVYYCAREGVAGAFDIWGQGTMVTVSSGGGGSGGGGSGSTGSAIQLTQSPSSLSASVGDRVTITCRASQSISSYLNWYQQKPGKAPKLLIYIASSLQSGVPSRFSGSGSGTDFTLTISSLQPEDFATYYCQQSYNTWTFGQGTKVEIKPKSSDKTHTCPPCPAPEAEGAPSVFLFPPKPKDTLMISRTPEVTCVVVDVSHEDPEVKFNWYVDGVEVHNAKTKPREEQYNSTYRVVSVLTVLHQDWLNGKEYKCAVSNKALPASIEKTISKAKGQPREPQVYTLPPSREEMTKNQVSLTCLVKGFYPSDIAVEWESNGQPENNYKTTPPVLDSDGSFFLYSKLTVDKSRWQQGNVFSCSVMHEALHNHYTQKSLSLSPGK
notes: also called 2RC28 scFv-Fc; 2RC28 single-chain Fv-Fc
Q: What does the source list for B2?
A: Kd [3]: 5.7 nM; Kd [4]: 6.9 nM

B3: GPA2RC17-Fc (anti-GPA33 single-chain Fv-Fc, scFv linked to human IgG1-Fc) (Fc fusion)
chain: QMQLVQSGGGLVKPGGSLRLSCAASGFTFSSYNMNWVRQAPGKGLEWVSSISSSGDFMYYADSVKGRFTISRDNAKNSLYLQMSSLRAEDTAVYYCAREGPGTPFDYWGQGTLVTVSSGGGGSGGGGSGSTGSAIQLTQSPSSLSASVGDRVTITCRASQSISSFLNWYQHKPGKAPKLLIYVASSLQSGVPSRFSGSGSGTDFTLTISSLQPEDFATYYCQQSHNTPYTFGQGTKLEIKPKSSDKTHTCPPCPAPEAEGAPSVFLFPPKPKDTLMISRTPEVTCVVVDVSHEDPEVKFNWYVDGVEVHNAKTKPREEQYNSTYRVVSVLTVLHQDWLNGKEYKCAVSNKALPASIEKTISKAKGQPREPQVYTLPPSREEMTKNQVSLTCLVKGFYPSDIAVEWESNGQPENNYKTTPPVLDSDGSFFLYSKLTVDKSRWQQGNVFSCSVMHEALHNHYTQKSLSLSPGK
notes: also called 2RC17 scFv-Fc; 2RC17-scFv-Fc
Q: With B3 as the binder, how does the Kd [3] read?
A: 1.4 nM

Q: And the Kd [4]?
A: 3.8 nM

B4: R1CRD-G17-His (other)
chain: ISAEGSQACAKGCELCSEVNGCLKCSPKLFILLERNDIRQVGVCLPSCPPGYFDARNPDMNKCIKCKIEHCEACFSHNFCTKCKEGLYLHKGRCYPACPEGSSAANGTMECSSGGGGSGGGGSGGGGSQMQLVQSGGGLVKPGGSLRLSCAASGFTFSSYNMNWVRQAPGKGLEWVSSISSSGDFMYYADSVKGRFTISRDNAKNSLYLQMSSLRAEDTAVYYCAREGPGTPFDYWGQGTLVTVSSGGGGSGGGGSGSTGSAIQLTQSPSSLSASVGDRVTITCRASQSISSFLNWYQHKPGKAPKLLIYVASSLQSGVPSRFSGSGSGTDFTLTISSLQPEDFATYYCQQSHNTPYTFGQGTKLEIKHHHHHHGA
Q: Which results are given for B4?
A: EC50(GPA33) (nM), Wnt/β-catenin reporter in 293STF cells expressing GPA33 [5]: 0.027 nM; EC50(MOG)/ EC50(GPA33) [5]: 307

B5: GPA33-2RC28 cloned scFv phage (scFv)
scFv: EVQLVESGGGLVKPGGSLRLSCAASGFTFSSYSMNWVRQAPGKGLEWVSSISRDSTYIYYADSVKGRFTISRDNAKNSLYLQMNSLRAEDTAVYYCAREGVAGAFDIWGQGTMVTVSSGGGGSGGGGSGSTGSAIQLTQSPSSLSASVGDRVTITCRASQSISSYLNWYQQKPGKAPKLLIYIASSLQSGVPSRFSGSGSGTDFTLTISSLQPEDFATYYCQQSYNTWTFGQGTKVEIK
Q: Which results are given for B5?
A: binding result [6]: binds; binding result [7]: binds

B6: G17-R2CRD-His (other)
chain: QMQLVQSGGGLVKPGGSLRLSCAASGFTFSSYNMNWVRQAPGKGLEWVSSISSSGDFMYYADSVKGRFTISRDNAKNSLYLQMSSLRAEDTAVYYCAREGPGTPFDYWGQGTLVTVSSGGGGSGGGGSGSTGSAIQLTQSPSSLSASVGDRVTITCRASQSISSFLNWYQHKPGKAPKLLIYVASSLQSGVPSRFSGSGSGTDFTLTISSLQPEDFATYYCQQSHNTPYTFGQGTKLEIKGGGGSGGGGSGGGGSNPICKGCLSCSKDNGCSRCQQKLFFFLRREGMRQYGECLHSCPSGYYGHRAPDMNRCARCRIENCDSCFSKDFCTKCKVGFYLHRGRCFDECPDGFAPLEETMECVEGHHHHHHGA
Q: Which results are given for B6?
A: EC50(GPA33) (nM), Wnt/β-catenin reporter in 293STF cells expressing GPA33 [5]: 0.021 nM; EC50(MOG)/ EC50(GPA33) [5]: 15.2

B7: G17-R4CRD-His (other)
chain: QMQLVQSGGGLVKPGGSLRLSCAASGFTFSSYNMNWVRQAPGKGLEWVSSISSSGDFMYYADSVKGRFTISRDNAKNSLYLQMSSLRAEDTAVYYCAREGPGTPFDYWGQGTLVTVSSGGGGSGGGGSGSTGSAIQLTQSPSSLSASVGDRVTITCRASQSISSFLNWYQHKPGKAPKLLIYVASSLQSGVPSRFSGSGSGTDFTLTISSLQPEDFATYYCQQSHNTPYTFGQGTKLEIKGGSGGSGGNCTGCIICSEENGCSTCQQRLFLFIRREGIRQYGKCLHDCPPGYFGIRGQEVNRCKKCGATCESCFSQDFCIRCKRQFYLYKGKCLPTCPPGTLAHQNTRECQGHHHHHHGA
Q: Which results are given for B7?
A: EC50(GPA33) (nM), Wnt/β-catenin reporter in 293STF cells expressing GPA33 [5]: 0.008 nM; EC50(MOG)/ EC50(GPA33) [5]: 348

B8: GPA33-2RC17 cloned scFv phage (scFv)
scFv: QMQLVQSGGGLVKPGGSLRLSCAASGFTFSSYNMNWVRQAPGKGLEWVSSISSSGDFMYYADSVKGRFTISRDNAKNSLYLQMSSLRAEDTAVYYCAREGPGTPFDYWGQGTLVTVSSGGGGSGGGGSGSTGSAIQLTQSPSSLSASVGDRVTITCRASQSISSFLNWYQHKPGKAPKLLIYVASSLQSGVPSRFSGSGSGTDFTLTISSLQPEDFATYYCQQSHNTPYTFGQGTKLEIK
notes: also called G17
Q: Does B8 bind [6]?
A: binds

Q: Does B8 bind [7]?
A: binds

B9: G17-R1CRD-GS3-Fcm (Fc fusion)
chain: QMQLVQSGGGLVKPGGSLRLSCAASGFTFSSYNMNWVRQAPGKGLEWVSSISSSGDFMYYADSVKGRFTISRDNAKNSLYLQMSSLRAEDTAVYYCAREGPGTPFDYWGQGTLVTVSSGGGGSGGGGSGSTGSAIQLTQSPSSLSASVGDRVTITCRASQSISSFLNWYQHKPGKAPKLLIYVASSLQSGVPSRFSGSGSGTDFTLTISSLQPEDFATYYCQQSHNTPYTFGQGTKLEIKGGSGGSISAEGSQACAKGCELCSEVNGCLKCSPKLFILLERNDIRQVGVCLPSCPPGYFDARNPDMNKCIKCKIEHCEACFSHNFCTKCKEGLYLHKGRCYPACPEGSSAANGTMECSSGGGGSGGGGSGGGGSEPKSADKTHTCPPCPAPEAEGAPSVFLFPPKPKDTLMISRTPEVTCVVVDVSHEDPEVKFNWYVDGVEVHNAKTKPREEQYNSTYRVVSVLTVLHQDWLNGKEYKCAVSNKALPASIEKTISKAKGQPREPQVYTLPPSREEMTKNQVSLTCLVKGFYPSDIAVEWESNGQPENNYKTTPPVLDSDGSFFLYSKLTVDKSRWQQGNVFSCSVMHEALHNHYTQKSLSLSPGK
Q: With B9 as the binder, how does the “EC50(GPA33) (nM), Wnt/β-catenin reporter in 293STF cells expressing GPA33” value [5] read?
A: 0.054 nM

Q: And the “EC50(MOG)/ EC50(GPA33)” value [5]?
A: > 556

B10: G17-R1CRD-His (other)
chain: QMQLVQSGGGLVKPGGSLRLSCAASGFTFSSYNMNWVRQAPGKGLEWVSSISSSGDFMYYADSVKGRFTISRDNAKNSLYLQMSSLRAEDTAVYYCAREGPGTPFDYWGQGTLVTVSSGGGGSGGGGSGSTGSAIQLTQSPSSLSASVGDRVTITCRASQSISSFLNWYQHKPGKAPKLLIYVASSLQSGVPSRFSGSGSGTDFTLTISSLQPEDFATYYCQQSHNTPYTFGQGTKLEIKGGSGGSISAEGSQACAKGCELCSEVNGCLKCSPKLFILLERNDIRQVGVCLPSCPPGYFDARNPDMNKCIKCKIEHCEACFSHNFCTKCKEGLYLHKGRCYPACPEGSSAANGTMECSSPAHHHHHHGA
Q: How did the “EC50(GPA33) (nM), Wnt/β-catenin reporter in 293STF cells expressing GPA33” value [5] turn out when B10 was run?
A: 0.031 nM

Q: What about the “EC50(MOG)/ EC50(GPA33)” value [5] of the same binder?
A: 968
